Values of other authors as cited in paper PMC8495968, “Towards optimizing peptide-based inhibitors of protein–protein interactions: predictive saturation variation scanning (PreSaVS)” (RSC Chemical Biology, 2021).

Biological target: SIM (RanBP2) 2705-2717 (Homo sapiens) (UniProt P49792)
Test: fluorescence anisotropy

Sequence of SUMO-1 (P63165 2-97): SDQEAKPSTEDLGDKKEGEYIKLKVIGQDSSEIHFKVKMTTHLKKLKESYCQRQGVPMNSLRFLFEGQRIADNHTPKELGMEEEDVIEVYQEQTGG

- Kd: 1.5 µM
Substance: SUMO-1 (from UniProt P63165)
